The experiment concerns the target T1, Biotinylated AVI-PLpro wild type (SARS-CoV-2 Nsp3 743-1072) (SARS-CoV-2, Wuhan-Hu-1 (MN908947.3), UniProt P0DTD1, biotin (BirA biotinylation of the Avi tag)).
T1 construct: also called biotinylated PLpro; WT PLpro^CoV-2
Description: flow cytometry on cells. Particulars: one partner purified.

Results on two molecules are retold here after article PMC8284666, “Biochemical characterization of protease activity of Nsp3 from SARS-CoV-2 and its inhibition by nanobodies” (PLoS ONE, 2021).

B1: NbSL19, displayed on yeast (VHH)
VHH: QVQLQESGGGLVQAGGSLRLSCAASGSIFFQAYMGWYRQAPGKERELVAGIDAGTTTYYADSVKGRFTISRDNAKNTVYLQMNSLKPEDTAVYYCAAEYFWNYNPYRGTNSTHPYWGQGTQVTVSS
Take B1: the binding result is “binds”.

B2: NbSL17, displayed on yeast (VHH)
VHH: QVQLQESGGGLVQAGGSLRLSCAASGSISDSTRMGWYRQAPGKERELVATITYGSTTYYADSVKGRFTISRDNAKNTVYLQMNSLKPEDTAVYYCAAFDENVYVYRPYHYYWGQGTQVTVSS
For the molecule B2, the binding result is recorded as “binds”.
